Assays:
[1] = molecular target: Fleur de Lys peptide (BIOMOL)
[2] = molecular target: T1, H3K9ac substrate (TARK(ac)STG)
T1 chain: TARKSTG

Sequence of DBC1, Q8N163 (Q8N163 whole entry, looked up): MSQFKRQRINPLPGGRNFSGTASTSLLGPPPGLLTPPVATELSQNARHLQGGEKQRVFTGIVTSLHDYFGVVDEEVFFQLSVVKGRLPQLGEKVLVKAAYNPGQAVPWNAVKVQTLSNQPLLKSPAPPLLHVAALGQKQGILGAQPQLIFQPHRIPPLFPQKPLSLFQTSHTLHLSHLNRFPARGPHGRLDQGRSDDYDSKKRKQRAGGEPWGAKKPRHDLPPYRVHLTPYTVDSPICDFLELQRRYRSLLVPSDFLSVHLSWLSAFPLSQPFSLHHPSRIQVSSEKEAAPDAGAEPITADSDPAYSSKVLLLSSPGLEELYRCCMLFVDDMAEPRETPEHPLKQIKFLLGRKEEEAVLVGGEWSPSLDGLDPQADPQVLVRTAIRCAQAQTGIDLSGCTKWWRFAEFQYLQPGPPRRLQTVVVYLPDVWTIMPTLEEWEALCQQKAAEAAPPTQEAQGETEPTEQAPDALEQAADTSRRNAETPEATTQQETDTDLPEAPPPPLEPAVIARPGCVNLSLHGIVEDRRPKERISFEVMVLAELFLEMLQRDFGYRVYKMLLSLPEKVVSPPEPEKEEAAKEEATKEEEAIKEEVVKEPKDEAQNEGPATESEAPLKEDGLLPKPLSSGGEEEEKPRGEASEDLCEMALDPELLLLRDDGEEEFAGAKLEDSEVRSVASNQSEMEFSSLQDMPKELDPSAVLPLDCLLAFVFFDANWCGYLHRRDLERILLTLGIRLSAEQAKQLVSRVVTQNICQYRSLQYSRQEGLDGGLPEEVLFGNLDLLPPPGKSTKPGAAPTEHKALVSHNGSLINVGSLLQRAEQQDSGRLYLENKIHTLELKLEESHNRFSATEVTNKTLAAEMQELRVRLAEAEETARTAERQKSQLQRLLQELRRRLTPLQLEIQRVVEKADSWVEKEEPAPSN

B1: full-length human SIRT1 enzyme (protein)
chain: ADEAALALQPGGSPSAAGADREAASSPAGEPLRKRPRRDGPGLERSPGEPGGAAPEREVPAAARGCPGAAAAALWREAEAEAAAAGGEQEAQATAAAGEGDNGPGLQGPSREPPLADNLYDEDDDDEGEEEEEAAAAAIGYRDNLLFGDEIITNGFHSCESDEEDRASHASSSDWTPRPRIGPYTFVQQHLMIGTDPRTILKDLLPETIPPPELDDMTLWQIVINILSEPPKRKKRKDINTIEDAVKLLQECKKIIVLTGAGVSVSCGIPDFRSRDGIYARLAVDFPDLPDPQAMFDIEYFRKDPRPFFKFAKEIYPGQFQPSLCHKFIALSDKEGKLLRNYTQNIDTLEQVAGIQRIIQCHGSFATASCLICKYKVDCEAVRGDIFNQVVPRCPRCPADEPLAIMKPEIVFFGENLPEQFHRAMKYDKDEVDLLIVIGSSLKVRPVALIPSSIPHEVPQILINREPLPHLHFDVELLGDCDVIINELCHRLGGEYAKLCCNPVKLSEITEKPPRTQKELAYLSELPPTPLHVSEDSSSPERTSPPDSSVIVTLLDQAAKSNDDLDVSESKGCMEEKPQEVQTSRNVESIAEQMENPDLKNVGSSTGEKNERTSVAGTVRKCWPNRVAKEQISRRLDGNQYLFLPPNRYIFHGAEVYSDSEDDVLSSSSCGSNSDSGTCQSPSLEEPMEDESEIEEFYNGLEDEPDVPERAGGAGFGTDGDDQEAINEAISVKQEVTDMNYPSNKS
SIRT1 activity (PNC1-OPT assay, dose titration of DBC1, H3K9-L peptide substrate) (DBC1, Q8N163): DBC1 concentration inversely correlates with SIRT1 activity | Km (PNC1-OPT nicotinamide assay, SIRT1 deacetylation) [1]: ˜130.2 uM | Km (stated in the kit protocol for the SIRT1 deacetylation reaction) [2]: final concentration=50 uM (Km)
